Results on one substance are retold here after US20030108922A1.

The target in test [1] is mouse IgG (mouse). The test can be described thus: sandwich immunoassay (SAM + primary Ab + mouse IgG + Ab-AP) on an Au-coated LTCC macrochip, not sonicated; CV of PAPR; antigen concentration not stated.
The target of test [2] is mouse IgG (mouse). Description: sandwich immunoassay (SAM + primary Ab + mouse IgG + Ab-AP) on an Au-coated silicon wafer macrochip; CV of PAPR; antigen concentration not stated.
The target in test [3] is mouse IgG (mouse). Description: sandwich immunoassay (SAM + primary Ab + mouse IgG + Ab-AP) on an Au-coated LTCC macrochip, sonicated for 2 min; CV of PAPR; antigen concentration not stated.

For “secondary antibody (to mouse IgG) conjugated to alkaline phosphatase”, the signal came to 34.6 Acm^-2 with mouse IgG (mouse) [1], 27.7 Acm^-2 in the test with mouse IgG (mouse) [2] and 30 Acm^-2 with mouse IgG (mouse) [3].
